Test results: the RNAGym collection of RNA variant scans (doi:10.1073/pnas.2313332121)
This sample holds only a part of the variants without activity.

B1: TPR 5TU (parent)
chain: GGAUCUUCUCGAUCUAACAAAAAAGACAAAUCUGCCACAAAGCUUGAGAGCAUCUUCGGAUGCAGAGGCGGCAGCCUUCGGUGGCGCGAUAGCGCCAACGUUCUCAACUAUGACACGCAAAACGCGUGCUCCGUUGAAUGGAGUUUAUCAUG

Variants of: B1
Assay: polymerase ribozyme fitness, log enrichment relative to wild type (log ratio); higher = more active; in vitro selection for triplet polymerase activity
Method in brief: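 To select mutant libraries of each subunit of a heterodimeric triplet polymerase ribozyme, built by PCR and transcribed, each was annealed with a biotinylated primer, partner subunit and triplets, then incubated frozen at −7 °C. Extended constructs were gel-excised, captured on streptavidin beads and amplified by RT-PCR, in one round carried out in triplicate. Illumina sequencing of input and output libraries kept genotypes with ≥10 input reads and ≥1 read per output. Fitness is the base-2 logarithm of genotype enrichment relative to wild-type enrichment, from inverse-variance-weighted replicate averages.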

Point of comparison: C38U A39C U61G G124C, “polymerase ribozyme fitness (log ratio)” value -3.96. Against it:
- A21G C36A C57U A64G G94U G126C A138G — lower, ≤ -4.2
- C43G C87U U109G — lower, ≤ -4.2
- A19U U31G U144C — higher, -1.49
- A21U C51U C93G C105U A120G — higher, -3.58
- A40C C93A — higher, -1.96
- C51A G86A G126A G128U G141A — lower, ≤ -4.2
- G67U A89C C96G A106C A119C — lower, ≤ -4.2
- G42U A91G G128U G133A — lower, ≤ -4.2
- A16U G46U G59C C76G G84U C85U U102C A138U — lower, ≤ -4.2
- A12G C14G G92C — higher, -2.86
- U4C G11U G42C G48A U53G C57G G81U C85U — lower, ≤ -4.2
- G50C C51G A52U C76U G84U C105U C114U G133A — lower, ≤ -4.2
- A12G U78C U139G — higher, -1.31
- A16U A22C — higher, -2.41
- U53A C75U C85U C123U C125A — higher, -2.32
- A39G G59A C96G U146C — higher, -3.67
- A37G A60G G83C C96U G141U — higher, -2.58
- A52G G100U A106U — lower, ≤ -4.2
- C96A G136A — higher, -0.205
- C79U A91U C125A — lower, ≤ -4.2
- A89U G141C — higher, -0.255
- C27U C57A C87A A115U — lower, ≤ -4.2
- A49C C93A C103G G117U C149G — lower, ≤ -4.2
- G34U U77G C87A A113C — lower, ≤ -4.2
- G92U U101G — higher, 0.0893
- A23U C114U — within 0.2 log units, -3.88
- G50C A64C G80A A120C G128U — lower, ≤ -4.2
- C38U A49U U61G G83U G133C A142C — lower, ≤ -4.2
- A40G G94C — higher, -1.82
- A39C G71C U78A C95U A122G — lower, ≤ -4.2
- A24U C93U G136A — higher, -1.47
- A26U C32G U45C G50C U53G G84A C99U A137G — lower, ≤ -4.2
- U13C G58C G67A G94C — lower, ≤ -4.2
- A41U G83C A110G G126A — lower, ≤ -4.2
- G92U A113C — higher, -2.78
- A91G A106G — higher, -1.93
- C76U G84A C118U U134A G140C U151A — lower, ≤ -4.2
- A47C G81C C99A U134G — within 0.2 log units, -4.06
- C87U G100U C114U — lower, ≤ -4.2
- A16U C125A — higher, -2.06
- A23C U55A U82C G136U — lower, ≤ -4.2
- G117U G143U — higher, -2.57
- A30C G59A — lower, ≤ -4.2
- A40G C87U C103G — lower, ≤ -4.2
- A12U C35U A91G — higher, -3.67
- A12G G141C — higher, -0.0174
- C35U C95G — higher, -1.22
- C85U A115U — higher, -2.38
- A47U G50A G84U A98U — higher, -3.28
- A3C C10G G11U A47U G48A G58C U82G G83A A137U — lower, ≤ -4.2
- A28U A52G C85U G88A C95G U109G — lower, ≤ -4.2
- A23U A29U C79G G81U C93G C149U — lower, ≤ -4.2
- C5G G94C U101G — higher, -2.68
- G88U A106G — within 0.2 log units, -3.91
- A28C G59U A91G U135C — lower, ≤ -4.2
- C14G A28U U55G A89U C96A G126A G128C G140C — lower, ≤ -4.2
- G74A G80A C85A G92A C125A G136C A138G — lower, ≤ -4.2
- U44G U45G C72G — lower, ≤ -4.2
- C85G A147U — higher, -0.872
- C76A C96G — higher, -1.51
- A30C C43U A49C C85G C108G — lower, ≤ -4.2
- C96U A121G — higher, 0.324
- C14G U15G A19C A22C A41G G58C C93U — within 0.2 log units, -3.91
- A28C G84A G94U C96G C108G U139C G143C — lower, ≤ -4.2
- A12U U13A A52C C87A G94U U134A A138U — lower, ≤ -4.2
- C57U C105G — higher, -0.3
- A39U U55A G83U C95G A115C C149G — lower, ≤ -4.2
- G42U U44G A60G G71A G86A A106U U134G U135C — lower, ≤ -4.2
- A19G A26U C85A A97C A119U C123U — lower, ≤ -4.2
- G70A A97U — higher, -3.59
- A39G G59C U104A — higher, -3.12
- C35A C95G — within 0.2 log units, -4.1
- U9C U55G — higher, -3.53
- C5A C57U G81C G94C C108A G143C — lower, ≤ -4.2
- G58U A97G A98G G117U U146G — higher, -0.542
- C54G C87G C103A C129G C132U — lower, ≤ -4.2
- C85A U144C — higher, -0.693
- A41G U44A U55A — higher, -3.41
- U13A A30U U33G G46A G86A A91U A119G — lower, ≤ -4.2
- G25C A97G — higher, -2.53
- G62C A106U C125U — within 0.2 log units, -3.86
- A22C C76A A89G C95G — lower, -4.19
- U82G G86A C96A — higher, -2.04
- C54U G80A — higher, -0.56
- A39C U45A G48U C57G G70A G83C C96U A115G G141A — lower, ≤ -4.2
- A52U G84A G143C — within 0.2 log units, -3.92
- A17G C93A — higher, -2.46
- C10A U56G C57G G59A C79U G83C C99G — lower, ≤ -4.2
- U7C A21C A24C G62C C76A G133C — lower, ≤ -4.2
- C96A G128U — higher, -2.45
- U4G A23G C32U G62C G94C G126A G143U — within 0.2 log units, -4.05
- A40G C85U C118A — higher, -2.77
- A20C G65U U90G C93U C129A — lower, ≤ -4.2
- C8U A21G A41C G50A G65C G88A — lower, ≤ -4.2
- A40C A52U G68C C85A G128C — lower, ≤ -4.2
- G58C C63U C95G — higher, -2.14
- A3U C57U — higher, 0.223
- C54G G140A U146A — lower, ≤ -4.2
- C8A G11A G50C U82A G83C — lower, ≤ -4.2
- C54U A73G — higher, -0.166
- A17C C38A U55G G86U C116G A122G — higher, -2.93
- C57A G84U — higher, -1.29
- A115C U127C — higher, -1.1
- C10U A23G G50U U53A G71C C87A A120U — lower, ≤ -4.2
- A30U A52C G67A G68A C87U A91G C95G U127C G143U U148G — lower, ≤ -4.2
- A16C C85U C95A C132U — higher, -3.71
- C32U A40G C105A — within 0.2 log units, -3.89
- A52G G88A C118A C123U G141C — lower, ≤ -4.2
- A19U A23G U90G — within 0.2 log units, -3.99
- U4G G48U G84A C93A G133A G141C — lower, ≤ -4.2
- A17U U53G C99A C125G G141U U146C — lower, ≤ -4.2
- C14G G88U C93A C116G U144A — lower, ≤ -4.2
- C96G — higher, -0.496
- C63U A91U C93G U139G — lower, ≤ -4.2
- C8G C54U G59C G81U C96A U144C — lower, ≤ -4.2
- G48A C85G A98U C99U — higher, -3.36
- U104G G126A — higher, 0.207
- A28U A29U G65A C95G C105G U111G A137C G152C — lower, ≤ -4.2
- C5G C14G C43G A73G G92U A97C — lower, ≤ -4.2
- U56A C93A A98U A107G C129U — lower, ≤ -4.2
- C27G C38U A39G A73C G94U U146C G152U — lower, ≤ -4.2
- U4G U13G A30C U31A G50U C95U C103A C105U — lower, ≤ -4.2
- U61A U144C — higher, -2.19
- A22U A26C G62C C87A C116G A147U — lower, ≤ -4.2
- A52G G67U A142G — higher, -3.52
- A47U G94A U134G — higher, -1.69
- C32G C85U — within 0.2 log units, -3.86
- U4A C5G G58A A73U C75U C85A G100A C105G U145A — lower, ≤ -4.2
- A30U A66G A115U G143A — lower, ≤ -4.2
- A40C C96U — higher, -0.579
- G68A C93G C129A U130A — lower, ≤ -4.2
- U55A U56A A106C — higher, -1.06
- A12G G59C — higher, 0.244
- C14U A122G — higher, -1.71
- C10U A41U G92C U139G — within 0.2 log units, -4.06
- G25C C38A G50C G92C U130G — lower, ≤ -4.2
- G46U C85G — higher, -1.84
- C32G G92U U127G G152U — within 0.2 log units, -3.98
- C57U C75U A107U U127C A150G — lower, ≤ -4.2
- C87U A120G — higher, -1.85
- U4G U53A C85U G133C — higher, -2.45
- U45C U55A — higher, -1.08
- C93A U146C — higher, -2.18
- A22C C63U G67C G84U A98C G128C U144A U151A — lower, ≤ -4.2
- A24C C72U C85G C131G G133U — lower, ≤ -4.2
- C38U A121C G136C A138U U148G — lower, ≤ -4.2
- C93A C105U — higher, -2.67
- A47C A60G C93A C95A C96U U139G — lower, ≤ -4.2
- G80A C93U — higher, -1.6
- A21G A22U A24G A39U C87A C96A U148C — lower, ≤ -4.2
- C14G C85A C95G C103U U146A — lower, ≤ -4.2
- C14G C131U — higher, -1.27
- A49C U56A A60U — lower, ≤ -4.2
- A20U C54A C96G C108G U109G C118G C132A G143A U148A C149U — lower, ≤ -4.2
- A19U G86A — higher, -2.04
- A20U U33A G83A G86A G100A C149U — lower, ≤ -4.2
- A22U A40G G84A A119G — higher, -2.75
- A29U U44A G58C U61A G71U U77A U82G G140C — lower, ≤ -4.2
- A22C U53A C57U G100A A119G A142C G152A — lower, ≤ -4.2
- U102G C105U C125U A150C — within 0.2 log units, -4.12
- A19G A91G C95U C125U — within 0.2 log units, -4.01
- G42C U56G C114U U127A A138C — lower, ≤ -4.2
- G11A C38U G59C A64U G81A C93U G94C — lower, ≤ -4.2
- A17G G86U A97U — higher, -2.08
- A20G A39G G50C C85A C93A C114G C125G — lower, ≤ -4.2
- A41G C76U G86A G117A — higher, -0.646
